# Laboratory results from the supplement of paper PMC12042874.
# ± gives the uncertainty stated by the source.
# Assay: amyloid nucleation score (Sup35N fusion, yeast selection) (log enrichment); library NNK3; higher = more nucleation; inactive = no reads after selection
# Outline: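 Libraries of peptides of 20 random codons fused to Sup35N were expressed in psi-negative yeast and induced 24 hours with 100 μM copper sulfate. Selection was 7 days at 30°C on medium lacking adenine and uracil, and plasmid inserts were Illumina-sequenced before and after selection. Nucleation score is the DiMSum log enrichment of output over input reads, centred on the mode score of non-aggregating sequences, and sequences with under 100 input reads were left out.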
row,Substance,amyloid nucleation score
1,FFASSIYQRALYTVILSSPT,inactive
2,FFCFLDYDYSIFEQVNEGLS,inactive
3,FFCGFRKTAASHFLFLVKDW,inactive
4,FFECSRRSSVLVQMS,inactive
5,FFLRSGCTIWTNSK,inactive
6,FFPCTGVRHSRDIAVV,inactive
7,FFRDQLRRLYLSSALMQFRM,inactive
8,FFRNDCGHVFSYVAGSES,inactive
9,FFRTGFLVGNSSEYYMQY,0.215 ± 0.46
10,FFSFTISMAWKGQVTELKCQ,inactive
11,FFVRH,inactive
12,FFVTR,inactive
13,FFYNDVETVCNVICPKVYSD,inactive
14,FGELS,inactive
15,FGGLWLICSVVYTLNCRSMV,1.79 ± 0.081
16,FGGSILTSYINGRGSAGLNW,0.797 ± 0.22
17,FGHYRYEFCELSGHGMGVDA,inactive
18,FGINDCVIRV,inactive
19,FGKRQSAMLLDLNSGWSNLD,-0.42 ± 1.3
20,FGLYYRLPNNCNKTGNQFTV,inactive
21,FGQLGVVNGFTELWQRLCSW,inactive
22,FGQSLAEIRFLFIPIDKMRR,inactive
23,FGRTHAYSLFQKKSGFLLTP,inactive

row,Substance,amyloid nucleation score
1,FGSFVRSMALESYLNYINAA,inactive
2,FGTCLNLYL,1.3 ± 0.11
3,FGTLFSTVFRVLRFNRISAP,inactive
4,FGVFVWEVVVGNMLLPHMVN,inactive
5,FGYVQVTKDPSFMCNYGMQS,inactive
6,FGYYTWTAYER,inactive
7,FHGYRLVYPSDYPWCLSSVH,inactive
8,FHNCLGTNKNGVLLNGMVWN,inactive
9,FHSWIFQTISLPGQGYRLQ,inactive
10,FHWYFAVSYTSYNMLSVWFV,inactive
11,FIANGSDILADLFLHTSFHG,inactive
12,FIASNASNCWYLMFVAKLYG,inactive
13,FICVCSNWGFIQNMITAPDW,2.77 ± 0.074
14,FIDQVDIVVCWSTWAI,inactive
15,FIEVEVWRESSR,inactive
16,FIEVYCKMGCLRYLVWGWSD,inactive
17,FIFAG,inactive
18,FIGDVLGSINGKCHLEYLYF,inactive
19,FIGLIVLILRVFGYDTMRYL,inactive
20,FIHLMLNMRFWRNTFNMPHA,inactive
21,FIHMCISFSGYFYDYCFNFN,inactive
22,FILNRLTRIIWDF,inactive
23,FILRDHRLSLSNCAMKCPQG,inactive

row,Substance,amyloid nucleation score
1,FILRVFMA,inactive
2,FINAVAIRMIILVSRTRPTF,0.984 ± 0.12
3,FINMKIKQTYMRVFFWICAV,inactive
4,FIPGMQA,inactive
5,FIRKSPWQRFDTHFGIIDFK,0.778 ± 0.17
6,FISHRARWISDESYIICHFV,-0.067 ± 1.1
7,FISLWQPPRL,inactive
8,FISSRLFTALLSRCNFHNRF,inactive
9,FIVSNYKSFVLYHLLNRMLV,inactive
10,FIYIRYPHRRS,inactive
11,FIYYDRFVKPSPKQTVSFSA,inactive
12,FKAWMSLKLSTRRLNSCVPR,inactive
13,FKFGLQLIRCMDFHWMF,inactive
14,FKGPVDCSVIV,inactive
15,FKLTDLCC,inactive
16,FKLVGDIYYQYVYALPRNKL,inactive
17,FKRTTMCGDYAVYVTPGTSL,inactive
18,FKSVIESTLMIETDY,inactive
19,FKTKDIVRKDEANSHWSMSG,inactive
20,FKYLRCNNIIVCPVVMVHLT,0.345 ± 0.22
21,FLCRAVRDKNHDIGLCWELR,-0.488 ± 0.8
22,FLDDSFVFGNRRRWAWGCRG,inactive
23,FLDVFLEFSILIFPSVTFKC,inactive

row,Substance,amyloid nucleation score
1,FLETV,inactive
2,FLFRC,inactive
3,FLFRRLGRSYYKYAV,inactive
4,FLFSW,-0.483 ± 1.9
5,FLFVCLSLIALTGADSLVQA,inactive
6,FLGCNRV,inactive
7,FLGSYSLTDRIRWVTFPLFQ,inactive
8,FLHQGT,inactive
9,FLIKSFWNMIVCEAGDCCKD,1.75 ± 0.12
10,FLKCGRSVPGV,inactive
11,FLKLGDSGRVYLLCFLAQVS,inactive
12,FLLIIHHST,-0.126 ± 0.6
13,FLMFKIPDTARELHVNSGLG,inactive
14,FLMVGKISKMFKQYNLLFH,inactive
15,FLMVLSMDLYVKLLLGSYIN,inactive
16,FLNTLFYHMGT,inactive
17,FLPCRFHNSLTDND,inactive
18,FLPRLSNIWPNFDSSEQLRY,inactive
19,FLRLSMKLHNLWYLLGSLWS,inactive
20,FLRRGCLFRQT,inactive
21,FLSYLSSIPAPYLNGSAGTT,inactive
22,FLTFHGC,inactive
23,FLVCHDYAYETVG,inactive

row,Substance,amyloid nucleation score
1,FLVCSGSNVWTREASHGGGN,-0.188 ± 0.47
2,FLVLFTL,inactive
3,FLVLLKTCYDSRPWP,1.72 ± 0.094
4,FLVLTNHRGARVRASCVMDR,inactive
5,FLWMSGSSGWLSTVVIGGSW,inactive
6,FLYYATGHRIFLV,inactive
7,FMDKLIESFTYCWCTFGYAH,inactive
8,FMINSNNRFGISRRTLMSLT,inactive
9,FMKSMVLYPDTVLFYFCLLH,inactive
10,FMPHARASQQLPGGSHFLNL,inactive
11,FMRDIKLTGGCGVNCAHLHA,inactive
12,FMSSVM,inactive
13,FMVSMIIESSAGTFFMLSLV,inactive
14,FMYMMFERQLPMWDNELLH,-0.251 ± 0.66
15,FNAKFFSQNMSVWCGVFM,2.6 ± 0.078
16,FNCLHIYWMM,0.372 ± 0.42
17,FNFFQCFRQNASTIFSSGML,inactive
18,FNFFTKVASDHRNI,inactive
19,FNFLPNGWRGKVHIGYYGNT,inactive
20,FNGEGFSRQG,-0.457 ± 1.8
21,FNIYCVGPNYATRGAGWVLL,1.78 ± 0.095
22,FNMYFCVIWLCDSFLIMCG,inactive
23,FNPCRGCYETKFHVYRLSRL,0.584 ± 0.28

row,Substance,amyloid nucleation score
1,FNQFHFKCSFNQCCYLNQAA,inactive
2,FNQQLSECVDVARELAGG,1.99 ± 0.086
3,FNSGCYT,inactive
4,FNVGFLKWCFSMVGQGVDLH,inactive
5,FNVLMGTSYFAISEIASVPA,inactive
6,FPARLYGYMFLKNSTLRFSR,inactive
7,FPENIVYGHEGLD,inactive
8,FPMDL,inactive
9,FPSKCCANKSSYLGWTSLCW,inactive
10,FPVSMENFKYA,inactive
11,FQCFFRVLVV,inactive
12,FQCRYLKHDDKDNYFKGNGK,inactive
13,FQFWGAGGDI,inactive
14,FQRFYYLCWPSIWNMFQGGG,inactive
15,FQRVPNWVSIILTGYRGNTC,inactive
16,FQVLN,inactive
17,FQWITSIRSSKKMGCY,inactive
18,FRACIVLYNTVHVVHFNISR,0.565 ± 0.46
19,FRADSSVGVIKVCLGRLCRW,inactive
20,FRAYWLYISALAHQIITMLK,inactive
21,FRCTRGSIVWSFYFVRNLMI,inactive
22,FRKTGFSFVFLIVDEYFICN,inactive
23,FRNLSDVLVRLFPVQLLSYP,inactive

row,Substance,amyloid nucleation score
1,FRNRLGSTDNQWV,inactive
2,FRRLHQGLWKMYS,inactive
3,FRSTGRKQELLLHSRKKQLP,inactive
4,FSDCFSRLVYPRGNNLV,inactive
5,FSFITLMVTLSSVKIGEIWW,inactive
6,FSGCWRWNNQ,inactive
7,FSGRMVSRIDIIYRRKSVMS,1.28 ± 0.076
8,FSGRYGTRLPLYSGRFKWFI,inactive
9,FSGSTSLCLMMRYTSTVR,0.359 ± 0.25
10,FSILCKLVLRQLKNGSFYGF,-0.329 ± 0.77
11,FSIPPFTRTCLKNGLHYSVR,-0.759 ± 0.88
12,FSIQSRCAVGWLSIGSVTAR,inactive
13,FSRGVCTSYLSVRYGLCSTE,inactive
14,FSRTRVTLV,inactive
15,FSSKDRLGSHSRYYFYCATL,inactive
16,FSSRDWNYSSRMVKIRNGRF,inactive
17,FSSRHVTPCIRINFNIVSCS,inactive
18,FSTWNKRRMLYRHSGLFRQS,inactive
19,FSVFPLFVTGFQDILWVDLL,inactive
20,FSYEMFNAMGYFPIASLCSF,inactive
